According to the supplement of paper PMC11246515:
± gives the standard deviation of the averaged measurements.

Test: total protein half-life in vivo (active degradation + dilution); higher = more stable protein
[1] = E. coli NCM3722 delta-clpP delta-lon delta-hslV, growth: N-lim chemostat, doubling time 6 h
[2] = E. coli NCM3722 delta-clpP, growth: N-lim chemostat, doubling time 6 h
[3] = E. coli NCM3722 delta-hslV, growth: N-lim chemostat, doubling time 6 h
[4] = E. coli NCM3722 delta-lon, growth: N-lim chemostat, doubling time 6 h
[5] = E. coli NCM3722 delta-smpB, growth: N-lim chemostat, doubling time 6 h
[6] = wild type E. coli NCM3722, growth: C-lim chemostat, doubling time 3 h
[7] = wild type E. coli NCM3722, growth: C-lim chemostat, doubling time 6 h
[8] = wild type E. coli NCM3722, growth: C-lim chemostat, doubling time 12 h
[9] = wild type E. coli NCM3722, growth: N-lim chemostat, doubling time 6 h
[10] = wild type E. coli NCM3722, growth: N-lim chemostat, doubling time 12 h
[11] = wild type E. coli NCM3722, growth: P-lim chemostat, doubling time 6 h
[12] = wild type E. coli NCM3722, growth: P-lim chemostat, doubling time 12 h

Sequence | total protein half-life in vivo [1] | total protein half-life in vivo [2] | total protein half-life in vivo [3] | total protein half-life in vivo [4] | total protein half-life in vivo [5] | total protein half-life in vivo [6] | total protein half-life in vivo [7] | total protein half-life in vivo [8] | total protein half-life in vivo [9] | total protein half-life in vivo [10] | total protein half-life in vivo [11] | total protein half-life in vivo [12]
MSKTHLTEQKFSDFALHPKVVEALEKKGFHNCTPIQALALPLTLAGRDVAGQAQTGTGKTMAFLTSTFHYLLSHPAIADRKVNQPRALIMAPTRELAVQIHADAEPLAEATGLKLGLAYGGDGYDKQLKVLESGVDILIGTTGRLIDYAKQNHINLGAIQVVVLDEADRMYDLGFIKDIRWLFRRMPPANQRLNMLFSATLSYRVRELAFEQMNNAEYIEVEPEQKTGHRIKEELFYPSNEEKMRLLQTLIEEEWPDRAIIFANTKHRCEEIWGHLAADGHRVGLLTGDVAQKKRLRILDEFTRGDLDILVATDVAARGLHIPAVTHVFNYDLPDDCEDYVHRIGRTGRAGASGHSISLACEEYALNLPAIETYIGHSIPVSKYNPDALMTDLPKPLRLTRPRTGNGPRRTGAPRNRRRSG [P0A8J8] | 6.02 ± 0.1 h | 5.9 ± 0.37 h | 5.52 ± 0.76 h | 5.16 ± 0.18 h | 4.94 ± 0.49 h | 3.18 ± 0.11 h | 5.73 ± 0.11 h | 9.86 ± 0.77 h | 4.71 ± 0.18 h | 7.89 ± 0.44 h | 5.06 ± 0.39 h | 9.85 ± 0.23 h
MSKVCIIAWVYGRVQGVGFRYTTQYEAKRLGLTGYAKNLDDGSVEVVACGEEGQVEKLMQWLKSGGPRSARVERVLSEPHHPSGELTDFRIR [P0AB65] | 6.07 ± 0.29 h | 5.82 ± 0.093 h | 5.59 ± 0.28 h | 5.89 ± 0.12 h | 5.9 ± 0.89 h | 3.38 ± 0.23 h | 5.96 ± 0.08 h | 8.66 h | 5.32 ± 0.17 h | 9.77 ± 1.8 h | – | –
MSKVKSITRESWILSTFPEWGSWLNEEIEQEQVAPGTFAMWWLGCTGIWLKSEGGTNVCVDFWCGTGKQSHGNPLMKQGHQMQRMAGVKKLQPNLRTTPFVLDPFAIRQIDAVLATHDHNDHIDVNVAAAVMQNCADDVPFIGPKTCVDLWIGWGVPKERCIVVKPGDVVKVKDIEIHALDAFDRTALITLPADQKAAGVLPDGMDDRAVNYLFKTPGGSLYHSGDSHYSNYYAKHGNEHQIDVALGSYGENPRGITDKMTSADMLRMGEALNAKVVIPFHHDIWSNFQADPQEIRVLWEMKKDRLKYGFKPFIWQVGGKFTWPLDKDNFEYHYPRGFDDCFTIEPDLPFKSFL | 5.04 ± 0.82 h | – | – | – | – | 3.56 h | – | 11.2 h | – | – | 3.67 ± 0.66 h | 9.39 h
MSKVRLAIIGNGMVGHRFIEDLLDKSDAANFDITVFCEEPRIAYDRVHLSSYFSHHTAEELSLVREGFYEKHGIKVLVGERAITINRQEKVIHSSAGRTVFYDKLIMATGSYPWIPPIKGSDTQDCFVYRTIEDLNAIESCARRSKRGAVVGGGLLGLEAAGALKNLGIETHVIEFAPMLMAEQLDQMGGEQLRRKIESMGVRVHTSKNTLEIVQEGVEARKTMRFADGSELEVDFIVFSTGIRPRDKLATQCGLDVAPRGGIVINDSCQTSDPDIYAIGECASWNNRVFGLVAPGYKMAQVAVDHILGSENAFEGADLSAKLKLLGVDVGGIGDAHGRTPGARSYVYLDESKEIYKRLIVSEDNKTLLGAVLVGDTSDYGNLLQLVLNAIELPENPDSLILPAHSGSGKPSIGVDKLPDSAQICSCFDVTKGDLIAAINKGCHTVAALKAETKAGTGCGGCIPLVTQVLNAELAKQGIEVNNNLCEHFAYSRQELFHLIRVEGIKTFEELLAKHGKGYGCEVCKPTVGSLLASCWNEYILKPEHTPLQDSNDNFLANIQKDGTYSVIPRSPGGEITPEGLMAVGRIAREFNLYTKITGSQRLAMFGAQKDDLPEIWRQLIEAGFETGHAYAKALRMAKTCVGSTWCRYGVGDSVGLGVELENRYKGIRTPHKMKFGVSGCTRECSEAQGKDVGIIATEKGWNLYVCGNGGMKPRHADLLAADIDRETLIKYLDRFMMFYIRTADKLTRTAPWLENLEGGIDYLKAVIIDDKLGLNAHLEEEMARLREAVLCEWTETVNTPSAQTRFKHFINSDKRDPNVQMVPEREQHRPATPYERIPVTLVEDNA | 6.11 h | 5.71 h | – | – | – | – | – | – | – | 6.72 h | – | –
MSLAGKKIVLGVSGGIAAYKTPELVRRLRDRGADVRVAMTEAAKAFITPLSLQAVSGYPVSDSLLDPAAEAAMGHIELGKWADLVILAPATADLIARVAAGMANDLVSTICLATPAPVAVLPAMNQQMYRAAATQHNLEVLASRGLLIWGPDSGSQACGDIGPGRMLDPLTIVDMAVAHFSPVNDLKHLNIMITAGPTREPLDPVRYISNHSSGKMGFAIAAAAARRGANVTLVSGPVSLPTPPFVKRVDVMTALEMEAAVNASVQQQNIFIGCAAVADYRAATVAPEKIKKQATQGDELTIKMVKNPDIVAGVAALKDHRPYVVGFAAETNNVEEYARQKRIRKNLDLICANDVSQPTQGFNSDNNALHLFWQDGDKVLPLERKELLGQLLLDEIVTRYDEKNRR [P0ABQ0] | 6.25 ± 0.61 h | 6.16 ± 0.64 h | 5.48 ± 0.55 h | 5.48 ± 0.67 h | 4.75 ± 0.079 h | 3.15 ± 0.096 h | 5.63 ± 0.26 h | 12.5 ± 3.3 h | 4.7 ± 0.6 h | 8.72 ± 0.93 h | 6.17 ± 0.24 h | 11.8 ± 0.15 h
MSLFHLIAPSGYCIKQHAALRGIQRLTDAGHQVNNVEVIARRCERFAGTETERLEDLNSLARLTTPNTIVLAVRGGYGASRLLADIDWQALVARQQHDPLLICGHSDFTAIQCGLLAHGNVITFSGPMLVANFGADELNAFTEHHFWLALRNETFTIEWQGEGPTCRAEGTLWGGNLAMLISLIGTPWMPKIENGILVLEDINEHPFRVERMLLQLYHAGILPRQKAIILGSFSGSTPNDYDAGYNLESVYAFLRSRLSIPLITGLDFGHEQRTVTLPLGAHAILNNTREGTQLTISGHPVLKM | 4.96 ± 0.9 h | 3.76 ± 0.25 h | 4.05 ± 0.72 h | 4.07 ± 0.22 h | 3.65 ± 0.53 h | 3.13 ± 0.084 h | 5 ± 0.86 h | 9.85 ± 0.41 h | 3.693 ± 0.016 h | 6.99 ± 0.87 h | 6.058 ± 0.043 h | 10.8 ± 0.56 h
MSLINTKIKPFKNQAFKNGEFIEITEKDTEGRWSVFFFYPADFTFVCPTELGDVADHYEELQKLGVDVYAVSTDTHFTHKAWHSSSETIAKIKYAMIGDPTGALTRNFDNMREDEGLADRATFVVDPQGIIQAIEVTAEGIGRDASDLLRKIKAAQYVASHPGEVCPAKWKEGEATLAPSLDLVGKI [P0AE08] | 2.82 ± 0.23 h | 2.22 ± 0.28 h | 1.91 ± 0.12 h | 2.26 ± 0.079 h | 2.119 ± 0.01 h | 2.89 ± 0.21 h | 5.05 ± 0.11 h | 7.67 ± 0.6 h | 2.03 ± 0.16 h | 2.6085 ± 0.0015 h | 5.49 ± 0.38 h | 9.52 ± 0.29 h
